Laboratory results reported in the RNAGym collection of RNA variant scans (doi:10.7554/elife.80360).

B1: Twister Ribozyme (parent)
chain: AACACUGCCAAUGCCGGUCCCAAGCCCGGAUAAAAGUGGAGGGGGCGG

Variants of: B1
Test: self-cleavage, relative activity (ratio to wild type); higher = more cleavage; co-transcriptional

Variant	self-cleavage
C8U A11C	0.89
C8U A11U	0.973
C8U A22G	0.1
C8U A22U	0.419
C8U A23C	0.0653
C8U A30U	0.662
C8U A32C	0.733
C8U A33C	0.447
C8U A33G	0.25
C8U A33U	0.531
C8U A34C	0.134
C8U A34G	0.582
C8U A34U	0.308
C8U A35C	0.547
C8U A35U	0.756
C8U A40G	0.172
C8U C9G	0.158
C8U C9U	0.0747
C8U C19U	0.35
C8U C20A	0.0588
C8U C21G	0.0658
C8U C21U	0.0732
C8U C25A	0.0853
C8U C25G	0.1

Variant	self-cleavage
C8U C25U	0.195
C8U C26A	0.117
C8U C27A	0.0891
C8U C27G	0.0565
C8U C27U	0.288
C8U G13A	0.342
C8U G13C	0.121
C8U G24U	0.177
C8U G28U	0.467
C8U G29A	0.516
C8U G29U	0.577
C8U G38C	0.644
C8U G39A	0.161
C8U G39U	0.136
C8U G41A	0.112
C8U G42A	0.127
C8U G42U	0.133
C8U G43A	0.145
C8U G43C	0.101
C8U G44U	0.603
C8U G45A	0.492
C8U G45C	0.141
C8U G48U	0.678
C8U U12G	0.429

Variant	self-cleavage
C8U U18C	0.0906
C8U U18G	0.0414
C8U U31C	0.713
C8U U37G	0.382
C9A A11C	1.03
C9A A11G	0.735
C9A A11U	0.767
C9A A23C	0.0979
C9A A23U	0.066
C9A A32U	0.558
C9A A33C	0.603
C9A A34C	0.18
C9A A40C	0.108
C9A A40U	0.119
C9A C14G	0.0661
C9A C15G	0.0772
C9A C19U	0.197
C9A C20A	0.0653
C9A C20U	0.15
C9A C21A	0.0865
C9A C21G	0.164
C9A C21U	0.0545
C9A C25A	0.0586
C9A C26A	0.11

Variant	self-cleavage
C9A C26G	0.0708
C9A C46G	0.59
C9A G13U	0.927
C9A G16U	0.254
C9A G17A	0.109
C9A G24C	0.119
C9A G29A	0.627
C9A G29C	0.307
C9A G29U	0.686
C9A G36A	0.178
C9A G36U	0.0953
C9A G38U	0.32
C9A G39C	0.119
C9A G41U	0.179
C9A G42A	0.149
C9A G42U	0.149
C9A G43C	0.0978
C9A G44U	0.544
C9A G45U	0.232
C9A G47A	0.336
C9A G47C	0.221
C9A G47U	0.244
C9A U12A	0.916
C9A U12G	0.417

Variant	self-cleavage
C9A U18G	0.159
C9A U31C	0.765
C9A U31G	0.777
C9A U37A	0.233
C9A U37G	0.33
C9G A10C	0.857
C9G A10G	0.656
C9G A10U	0.859
C9G A11G	0.715
C9G A11U	0.985
C9G A23C	0.0567
C9G A30G	0.791
C9G A32C	0.195
C9G A32G	0.731
C9G A33C	0.548
C9G A33G	0.548
C9G A33U	0.689
C9G A34C	0.134
C9G A34G	0.238
C9G A35C	0.556
C9G A40C	0.102
C9G A40G	0.109
C9G A40U	0.151
C9G C14G	0.0866

Variant	self-cleavage
C9G C15A	0.278
C9G C15G	0.0512
C9G C19A	0.0927
C9G C19G	0.073
C9G C19U	0.144
C9G C20A	0.0864
C9G C20G	0.0438
C9G C21A	0.0451
C9G C46A	0.376
C9G C46U	0.609
C9G G16U	0.346
C9G G17A	0.103
C9G G24A	0.0902
C9G G28A	0.512
C9G G28C	0.495
C9G G28U	0.428
C9G G29A	0.596
C9G G29C	0.396
C9G G29U	0.447
C9G G36A	0.204
C9G G38U	0.387
C9G G39A	0.137
C9G G39U	0.147
C9G G41A	0.168

Variant	self-cleavage
C9G G42U	0.119
C9G G43U	0.134
C9G G44A	0.731
C9G G44U	0.427
C9G G45A	0.444
C9G G48U	0.377
C9G U12A	0.968
C9G U31C	0.722
C9G U31G	0.781
C9G U37A	0.208
C9G U37C	0.156
C9U A10C	0.948
C9U A10U	0.399
C9U A11G	0.597
C9U A11U	0.84
C9U A22C	0.779
C9U A22G	0.0671
C9U A22U	0.313
C9U A23G	0.0717
C9U A23U	0.0746
C9U A30U	0.579
C9U A32C	0.64
C9U A32U	0.585
